Article PMC3909270, “The basic keratin 10-binding domain of the virulence-associated pneumococcal serine-rich protein PsrP adopts a novel MSCRAMM fold” (Open Biology, 2014)
Changes are numbered by the printed parent chain.

B1: Strep-Tag-II BR_(187–385) (KRT10-binding domain of the pneumococcal serine-rich repeat protein PsrP) (domain or fragment)
chain: FSGNTIVNGAPAINASLNIAKSETKVYTGEGVDSVYRVPIYYKLKVTNDGSKLTFTYTVTYVNPKTNDLGNISSMRPGYSIYNSGTSTQTMLTLGSDLGKPSGVKNYITDKNGRQVLSYNTSTMTTQGSGYTWGNGAQMNGFFAKKGYGLTSSWTVPITGTDTSFTFTPYAARTDRIGINYFNGGGKVVESSTTSQSLS
notes: also called STII-BR_(187–385); WT-BR_(187–385)
B2: KRT10 tail-rod-2B domain (KRT10-TRD) (domain or fragment)
chain: LKQSLEASLAETEGRYCVQLSQIQAQISALEEQLQQIRAETECQNTEYQQLLDIKIRLENEIQTYRSLLEGEGSSGGGGRGGGSFGGGYGGGSSGGGSSGGGHGGGHGGSSGGGYGGGSSGGGSSGGGYGGGSSSGGHGGSSSGGYGGGSSGGGGGGYGGGSSGGGSSSGGGYGGGSSSGGHKSSSSGSVGESSS
notes: Keratin-10 (KRT10), tail-rod-2B domain, residues 385-579, Uniprot ID P13645; source: expressed from pET21d, soluble, purified (IMAC, anion exchange)

Tests used:
Settings in all cases: both partners purified
[1] = target: T1, full-length keratin-10 (KRT10-FL) (human, UniProt P13645 1-584); test: ELISA; KRT10 constructs coated on Nunc C96 plates (coating adjusted to KRT10-TRD at about 5 µg/ml), 2% BSA block; STII-BR_(187–385) 23 nM to 3 µM in PBS; detected with Strep-Tactin HRP; four-parameter logistic fit
T1 construct: Keratin-10 (KRT10), residues 1-584, Uniprot ID P13645; also called KRT10-full-length; full-length KRT10; source: expressed from pET21d, purified as inclusion bodies, anion exchange in 6 M urea, dialysed against urea-free buffer
T1 sequence (looked up): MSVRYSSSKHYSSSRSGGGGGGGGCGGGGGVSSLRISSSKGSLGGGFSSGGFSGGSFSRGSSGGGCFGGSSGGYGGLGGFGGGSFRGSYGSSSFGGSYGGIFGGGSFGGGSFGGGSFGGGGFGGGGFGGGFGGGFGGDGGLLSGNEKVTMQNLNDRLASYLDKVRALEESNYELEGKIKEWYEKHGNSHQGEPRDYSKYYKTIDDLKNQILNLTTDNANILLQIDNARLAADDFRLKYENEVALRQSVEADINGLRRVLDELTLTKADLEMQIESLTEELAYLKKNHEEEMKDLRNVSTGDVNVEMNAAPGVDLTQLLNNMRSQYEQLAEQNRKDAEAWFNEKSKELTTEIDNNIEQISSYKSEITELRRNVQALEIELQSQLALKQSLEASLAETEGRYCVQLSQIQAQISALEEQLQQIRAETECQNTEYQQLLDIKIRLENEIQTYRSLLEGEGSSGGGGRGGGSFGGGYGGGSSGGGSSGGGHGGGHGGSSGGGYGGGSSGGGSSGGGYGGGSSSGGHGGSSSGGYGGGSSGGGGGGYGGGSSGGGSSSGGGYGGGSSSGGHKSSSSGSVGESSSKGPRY

[2] = target: B2; test: as above
[3] = target: T2, KRT10 rod domain (KRT10-ROD) (human, UniProt P13645 137-448, M150L); test: as above
T2 construct: Keratin-10 (KRT10), rod domain, residues 137-448, Uniprot ID P13645; M150L introduced to prevent second translation initiation; source: expressed from pET21d, purified as inclusion bodies, anion exchange in 6 M urea, dialysed against urea-free buffer
T2 sequence: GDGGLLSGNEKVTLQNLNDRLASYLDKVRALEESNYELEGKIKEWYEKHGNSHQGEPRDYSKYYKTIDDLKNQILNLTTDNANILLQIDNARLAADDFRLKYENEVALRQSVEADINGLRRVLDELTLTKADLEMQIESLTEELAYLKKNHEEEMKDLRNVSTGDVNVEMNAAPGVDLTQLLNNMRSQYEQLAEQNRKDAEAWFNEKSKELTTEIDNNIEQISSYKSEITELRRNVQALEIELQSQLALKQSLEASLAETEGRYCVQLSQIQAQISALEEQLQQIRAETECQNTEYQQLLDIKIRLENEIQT

N321A-BR_(187–385) = target: T3, N321A-BR_(187–385) (S. pneumoniae TIGR4, UniProt A0A0H2URK1 186-384, N321A); test: ELISA; KRT10-TRD coated; WT-BR_(187–385) and mutated variants at a single concentration of 1 µM; detected with Strep-Tactin HRP; normalised intensities
T3 construct: PsrP, S. pneumoniae TIGR4, residues 187-385, with N321A; source: expressed from pET21d; purification of the mutants not detailed (SEC mentioned)
T3 sequence: B1 chain with N135A

K231A-BR_(187–385) = target: T4, K231A-BR_(187–385) (S. pneumoniae TIGR4, UniProt A0A0H2URK1 186-384, K231A); test: as above
T4 construct: PsrP, S. pneumoniae TIGR4, residues 187-385, with K231A; also called control K231A-BR_(187–385); source: expressed from pET21d; purification of the mutants not detailed (SEC mentioned)
T4 sequence: B1 chain with K45A

Binder	EC50 [1] [nM]	EC50 [2] [nM]	EC50 [3] [nM]	binding result (N321A-BR_(187–385))	binding result (K231A-BR_(187–385))
B1	345	345	~1800	–	–
B2	–	–	–	binds	binds
